# B1: CD19ALAb (antibody)
# chain: QVQLQQSGAELVRPGSSVKISCKASGYAFSSYWMNWVKQRPGQGLEWIGQIWPGDGDTNYNGKFKGKATLTADESSSTAYMQLSSLASEDSAVYFCARRETTTVGRYYYAMDYWGQGTTVTVSSDIQLTQSPASLAVSLGQRATISCKASQSVDYDGDSYLNWYQQIPGQPPKLLIYDASNLVSGIPPRFSGSGSGTDFTLNIHPVEKVDAATYHCQQSTEDPWTFGGGTKLEIK
# B2: Murine CD19ALAb scFv (scFv)
# scFv: B1 chain
# B3: Humanised CD22ALAb scFv (scFv)
# scFv: EVQLVESGAEVKKPGSSVKVSCKASGYTFTNYWINWVRQAPGQGLEWIGNIYPSDSFTNYNQKFKDRATLTVDKSTSTAYLELRNLRSDDTAVYYCTRDTQERSWYFDVWGQGTLVTVSSDIVMTQSPATLSVSPGERATLSCRSSQSLVHSNGNTYLHWYQQKPGQAPRLLIYKVSNRFSGVPARFSGSGSGVEFTLTISSLQSEDFAVYYCSQSTHVPWTFGQGTRLEIK
# B4: Murine CD22ALAb scFv (scFv)
# scFv: QVQLQQPGAELVRPGASVKLSCKASGYTFTNYWINWVKQRPGQGLEWIGNIYPSDSFTNYNQKFKDKATLTVDKSSSTAYMQLSSPTSEDSAVYYCTRDTQERSWYFDVWGAGTTVTVSSDVVMTQTPLSLPVSLGDQASISCRSSQSLVHSNGNTYLHWYLQKPGQSPKLLIYKVSNRFSGVPDRFSGSGSGTDFTLKISRVEAEDLGLYFCSQSTHVPWTFGGGTKLEIK
# How the values were obtained:
# CD19 [1] = target: T1, CD19 (human, UniProt P15391 20-291); test: binding kinetics
# T1 chain: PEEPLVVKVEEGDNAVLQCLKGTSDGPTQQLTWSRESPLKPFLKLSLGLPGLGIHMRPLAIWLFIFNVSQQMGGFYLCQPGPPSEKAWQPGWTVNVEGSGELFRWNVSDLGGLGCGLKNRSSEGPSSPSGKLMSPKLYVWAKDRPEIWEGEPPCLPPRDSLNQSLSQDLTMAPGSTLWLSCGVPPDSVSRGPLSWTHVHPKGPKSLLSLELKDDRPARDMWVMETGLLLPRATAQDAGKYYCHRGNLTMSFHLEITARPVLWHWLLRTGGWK
# CD19 [2] = target: T1, CD19; test: Biacore SPR
# CD22 = CD22 (human, UniProt P20273 20-687); test: Biacore SPR
binder,measurement,setting,value
B1,Kd,CD19 [1],1.1 nM
B2,Kd,CD19 [2],1.85 nM
B3,Kd,CD22,32 nM
B4,Kd,CD22,38 nM

# Reference: US20180371054A1 (published 2018)
